Substitutions are numbered along the chain they refer to.
B1: TR01H015-E2702GsKsc/GCH019-E2704sEpsc/L0000-k0 (bispecific antibody, human IgG4 S228P, kappa, N297A)
heavy 1: QVQLVESGGGLVQPGRSLRLSCAASGFTFSNAWMHWVRQAPGKGLEWVAQIKGKSNNYATYYAESVKGRFTISRADSKNSIYLQMNSLKTEDTAVYYCRYVHYSASYGVDIWGQGTTVTVSSASTKGPSVFPLAPCSRSTSESTAALGCLVKDYFPEPVTVSWNSGALTSGVHTFPAVLQSSGLYSLSSVVTVPSSSLGTKTYTCNVDHKPSNTKVDKRVESKYGPPCPPCPAPEFRGGPKVFLFPPKPKDTLMISRTPEVTCVVVDVSQEDPEVQFNWYVDGVEVHNAKTKPREEQFASTYRVVSVLTVLHQDWLNGKEYKCKVSNKGLPSSIEKTISKAKGQPREPQVYTLPPSQKEMTKNQVSLTCLVKGFYPSDIAVEWESNGQPENNYKTTPPVLDSDGSFFLYSKLTVDKSRWQEGNVFSCSVMHEALHNRYTQKSLSLSP
heavy 2: QVQLVQSGAEVKKPGASVTVSCKASGYTFTDYEMHWIRQPPGEGLEWIGAIDGKTPDTAYEQKFKGRVTLTADKSTSTAYMELSSLTSEDTAVYYCTRFYSYTYWGQGTLVTVSSASTKGPSVFPLAPCSRSTSESTAALGCLVKDYFPEPVTVSWNSGALTSGVHTFPAVLQSSGLYSLSSVVTVPSSSLGTQTYTCNVDHKPSNTKVDKRVESKYGPPCPPCPAPEFRGGPKVFLFPPKPKDTLMISRTPEVTCVVVDVSQEDPEVQFNWYVDGVEVHNAKTKPREEQFASTYRVVSVLTVLHQDWLNGKEYKCKVSNKGLPSSIEKTISKAKGQPREPQVYTLPPSQEEMTKNQVSLTCLVKGFYPSDIAVEWESNGQPENNYKTTPPVLDSDGSFFLYSKLTVDKSRWQEGNVFSCSVMHEALHNHYTQESLSLSP
light: DIVMTQSPLSLPVTPGEPASISCRSSQSLVHSNRNTYLHWYQQKPGQAPRLLIYKVSNRFSGVPDRFSGSGSGTDFTLKISRVEAEDVGVYYCGQGTQVPYTFGQGTKLEIKRTVAAPSVFIFPPSDEQLKSGTASVVCLLNNFYPREAKVQWKVDNALQSGNSQESVTEQDSKDSTYSLSSTLTLSKADYEKHKVYACEVTHQGLSSPVTKSFNRGEC
notes: common L chain format
B2: GCH060-G1dh/none-Hi-Kn010G3/L0222-k0 (antibody, V domains shown)
VH: QVQLVQSGAEVKKPGASVTVSCKASGYTFEDYEMHWIRQPPGEGLEWIGAIDGETPDTAYSQKFEGRVTLTADKSTSTAYMELSSLTEEDTAVYYCTRFYSYTYWGQGTLVTVSS
VL: DIVMTQSPLSLPVTPGEPASISCRSSQSPVHSNRNTYIQWYQQKPGQAPRLLIYKVSNRFSGVPDRFSGSGSGTDFTLKISRVEAEDVGVYYCYQGTQVPYTFGQGTKLEIKR
notes: one-arm
B3: H0610-G1dh/none-Hi-Kn010G3/L0000vk1-k0 (antibody, V domains shown)
VH: B2 VH with T19K, E30T, E43Q, E54K, E65K, E88S
VL: DIQMTQSPSSLSASVGDRVTITCRSSQSLVHSNRNTYLHWYQQKPGKAPKLLIYKVSNRFSGVPSRFSGSGSGTDFTFTISSLQPEDIATYYCGQGTQVPYTFGQGTKVEIK
notes: one-arm
B4: GCH100-G1dh/none-Hi-Kn010G3/L0011-k0 (antibody, V domains shown)
VH: B2 VH with E30T, I37V, P40A, I48M, E54Y, Q62E, E65K, E88S
VL: B2 VL with S28P, P29L, I38L, Q39H, Y94G
notes: one-arm
B5: GCH099-G1dh/none-Hi-Kn010G3/L0000-k0 (antibody, V domains shown)
VH: B2 VH with E30T, I37V, P40A, I48M, E54W, Q62E, E65K, E88S
VL: B2 VL with P29L, I38L, Q39H, Y94G
notes: one-arm
B6: GCH099-G1dh/none-Hi-Kn010G3/L0011-k0 (antibody, V domains shown)
VH: B2 VH with E30T, I37V, P40A, I48M, E54W, Q62E, E65K, E88S
VL: B2 VL with S28P, P29L, I38L, Q39H, Y94G
notes: one-arm
B7: GCH065-G1dh/none-Hi-Kn010G3/L0000-k0 (antibody, V domains shown)
VH: B2 VH with E30T, E54P, Q62E, E65K, E88S
VL: B2 VL with P29L, I38L, Q39H, Y94G
notes: one-arm
B8: GCH098-G1dh/none-Hi-Kn010G3/L0011-k0 (antibody, V domains shown)
VH: B2 VH with E30T, I37V, P40A, I48M, E54P, Q62E, E65K, E88S
VL: B2 VL with S28P, P29L, I38L, Q39H, Y94G
notes: one-arm
B9: H0610-G1dh/none-Hi-Kn010G3/L0203-k0 (antibody, V domains shown)
VH: B2 VH with T19K, E30T, E43Q, E54K, E65K, E88S
VL: B2 VL with Q39H, Y94G
notes: one-arm
B10: GCH094-G1dh/none-Hi-Kn010G3/L0201-k0 (antibody, V domains shown)
VH: B2 VH with E30T, I37V, P40A, I48M, Q62E, E65K, E88S
VL: B2 VL with S28P, I38L, Q39H, Y94G
notes: one-arm
B11: GCH066-G1dh/none-Hi-Kn010G3/L0000-k0 (antibody, V domains shown)
VH: B2 VH with E30T, E54W, Q62E, E65K, E88S
VL: B2 VL with P29L, I38L, Q39H, Y94G
notes: one-arm
B12: GCH098-G1dh/none-Hi-Kn010G3/L0000-k0 (antibody, V domains shown)
VH: B2 VH with E30T, I37V, P40A, I48M, E54P, Q62E, E65K, E88S
VL: B2 VL with P29L, I38L, Q39H, Y94G
notes: one-arm
B13: GCH061-G1dh/none-Hi-Kn010G3/L0000-k0 (antibody, V domains shown)
VH: B2 VH with T19K, E30T, I37V, P40A, E43Q, E54K, E65K, E88S
VL: B2 VL with P29L, I38L, Q39H, Y94G
notes: one-arm
B14: GCH067-G1dh/none-Hi-Kn010G3/L0000-k0 (antibody, V domains shown)
VH: B2 VH with E30T, E54Y, Q62E, E65K, E88S
VL: B2 VL with P29L, I38L, Q39H, Y94G
notes: one-arm
B15: GCH062-G1dh/none-Hi-Kn010G3/L0000-k0 (antibody, V domains shown)
VH: B2 VH with T19K, E30T, E43Q, I48M, E54K, E65K, E88S
VL: B2 VL with P29L, I38L, Q39H, Y94G
notes: one-arm
B16: GCH065-G1dh/none-Hi-Kn010G3/L0201-k0 (antibody, V domains shown)
VH: B2 VH with E30T, E54P, Q62E, E65K, E88S
VL: B2 VL with S28P, I38L, Q39H, Y94G
notes: one-arm
B17: GCH094-G1dh/none-Hi-Kn010G3/L0000-k0 (antibody, V domains shown)
VH: B2 VH with E30T, I37V, P40A, I48M, Q62E, E65K, E88S
VL: B2 VL with P29L, I38L, Q39H, Y94G
notes: one-arm
B18: GCH073-G1dh/none-Hi-Kn010G3/L0000-k0 (antibody, V domains shown)
VH: B2 VH with E30T, E54P, E88S
VL: B2 VL with P29L, I38L, Q39H, Y94G
notes: one-arm
B19: GCH073-G1dh/none-Hi-Kn010G3/L0201-k0 (antibody, V domains shown)
VH: B2 VH with E30T, E54P, E88S
VL: B2 VL with S28P, I38L, Q39H, Y94G
notes: one-arm
B20: H0610-G1dh/none-Hi-Kn010G3/L0201-k0 (antibody, V domains shown)
VH: B2 VH with T19K, E30T, E43Q, E54K, E65K, E88S
VL: B2 VL with S28P, I38L, Q39H, Y94G
notes: one-arm
B21: H0610-G1dh/none-Hi-Kn010G3/L0206-k0 (antibody, V domains shown)
VH: B2 VH with T19K, E30T, E43Q, E54K, E65K, E88S
VL: B2 VL with I38L, Q39H
notes: one-arm
B22: GCH064-G1dh/none-Hi-Kn010G3/L0000-k0 (antibody, V domains shown)
VH: B2 VH with T19K, E30T, E43Q, E54K, E65K, T87R, E88S
VL: B2 VL with P29L, I38L, Q39H, Y94G
notes: one-arm
B23: GCH068-G1dh/none-Hi-Kn010G3/L0000-k0 (antibody, V domains shown)
VH: B2 VH with E30T, E54K, Q62E, E65K, E88S
VL: B2 VL with P29L, I38L, Q39H, Y94G
notes: one-arm
B24: H0610-G1dh/none-Hi-Kn010G3/L0211-k0 (antibody, V domains shown)
VH: B2 VH with T19K, E30T, E43Q, E54K, E65K, E88S
VL: B2 VL with S28P, I38L, Q39H
notes: one-arm
B25: H0610-G1dh/none-Hi-Kn010G3/L0209-k0 (antibody, V domains shown)
VH: B2 VH with T19K, E30T, E43Q, E54K, E65K, E88S
VL: B2 VL with Q39H
notes: one-arm
B26: GCH100-G1dh/none-Hi-Kn010G3/L0201-k0 (antibody, V domains shown)
VH: B2 VH with E30T, I37V, P40A, I48M, E54Y, Q62E, E65K, E88S
VL: B2 VL with S28P, I38L, Q39H, Y94G
notes: one-arm
B27: H0610-G1dh/none-Hi-Kn010G3/L0222-k0 (antibody, V domains shown)
VH: B2 VH with T19K, E30T, E43Q, E54K, E65K, E88S
VL: B2 VL
notes: one-arm
B28: GCH073-G1dh/none-Hi-Kn010G3/L0011-k0 (antibody, V domains shown)
VH: B2 VH with E30T, E54P, E88S
VL: B2 VL with S28P, P29L, I38L, Q39H, Y94G
notes: one-arm
B29: H0610-G1dh/none-Hi-Kn010G3/L0204-k0 (antibody, V domains shown)
VH: B2 VH with T19K, E30T, E43Q, E54K, E65K, E88S
VL: B2 VL with I38L, Q39H, S61R, Y94G
notes: one-arm
B30: GCH099-G1dh/none-Hi-Kn010G3/L0201-k0 (antibody, V domains shown)
VH: B2 VH with E30T, I37V, P40A, I48M, E54W, Q62E, E65K, E88S
VL: B2 VL with S28P, I38L, Q39H, Y94G
notes: one-arm
B31: H0610-G1dh/none-Hi-Kn010G3/L0208-k0 (antibody, V domains shown)
VH: B2 VH with T19K, E30T, E43Q, E54K, E65K, E88S
VL: B2 VL with I38L, Q39H, S61W
notes: one-arm
B32: GCH100-G1dh/none-Hi-Kn010G3/L0000-k0 (antibody, V domains shown)
VH: B2 VH with E30T, I37V, P40A, I48M, E54Y, Q62E, E65K, E88S
VL: B2 VL with P29L, I38L, Q39H, Y94G
notes: one-arm
B33: GCH098-G1dh/none-Hi-Kn010G3/L0201-k0 (antibody, V domains shown)
VH: B2 VH with E30T, I37V, P40A, I48M, E54P, Q62E, E65K, E88S
VL: B2 VL with S28P, I38L, Q39H, Y94G
notes: one-arm
B34: H0610-G1dh/none-Hi-Kn010G3/L0011-k0 (antibody, V domains shown)
VH: B2 VH with T19K, E30T, E43Q, E54K, E65K, E88S
VL: B2 VL with S28P, P29L, I38L, Q39H, Y94G
notes: one-arm
B35: H0610-G1dh/none-Hi-Kn010G3/L0212-k0 (antibody, V domains shown)
VH: B2 VH with T19K, E30T, E43Q, E54K, E65K, E88S
VL: B2 VL with S25P, I38L, Q39H
notes: one-arm

How the values were obtained:
[1] = target: T1, soluble human CD3 epsilon chain (human, UniProt P07766 23-126); experiment: SPR
T1 construct: also called CD3ε

human GPC3 = target: T2, human GPC3 (human, UniProt P51654 25-563); experiment: SPR
T2 construct: range 25-563; soluble analyte; also called soluble human GPC3; glypican 3
T2 sequence (P51654 25-563 limits assumed): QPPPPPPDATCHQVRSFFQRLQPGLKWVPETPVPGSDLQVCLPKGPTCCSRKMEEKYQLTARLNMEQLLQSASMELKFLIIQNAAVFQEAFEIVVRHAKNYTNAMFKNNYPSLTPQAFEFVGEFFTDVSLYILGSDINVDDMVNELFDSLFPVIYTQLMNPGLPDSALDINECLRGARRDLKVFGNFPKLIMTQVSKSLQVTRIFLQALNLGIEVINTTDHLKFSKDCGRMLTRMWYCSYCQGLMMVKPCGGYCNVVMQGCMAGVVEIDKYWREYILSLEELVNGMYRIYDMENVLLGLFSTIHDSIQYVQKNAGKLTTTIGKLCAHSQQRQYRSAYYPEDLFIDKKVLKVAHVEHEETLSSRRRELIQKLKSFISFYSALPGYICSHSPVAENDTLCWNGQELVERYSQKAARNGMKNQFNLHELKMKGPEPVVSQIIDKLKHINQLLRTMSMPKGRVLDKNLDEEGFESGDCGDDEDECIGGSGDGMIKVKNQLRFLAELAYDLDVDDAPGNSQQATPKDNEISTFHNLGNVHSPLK

T1 sequence (P07766 23-126 limits assumed): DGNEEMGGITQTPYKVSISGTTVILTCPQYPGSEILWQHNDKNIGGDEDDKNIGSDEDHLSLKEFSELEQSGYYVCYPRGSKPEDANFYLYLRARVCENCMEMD

| Binder | Kd [1] [nM] | Kd (human GPC3) [nM] |
| --- | --- | --- |
| B1 | 29.6 | 1.64 |
| B2 |  | 0.000642 |
| B3 |  | 2.16 |
| B4 |  | 3.81 |
| B5 |  | 4.24 |
| B6 |  | 2.78 |
| B7 |  | 1.41 |
| B8 |  | 0.802 |
| B9 |  | 2.11 |
| B10 |  | 1.17 |
| B11 |  | 4.29 |
| B12 |  | 1.77 |
| B13 |  | 5.13 |
| B14 |  | 5.24 |
| B15 |  | 3.73 |
| B16 |  | 0.0774 |
| B17 |  | 5.89 |
| B18 |  | 2 |

| Binder | Kd [1] [nM] | Kd (human GPC3) [nM] |
| --- | --- | --- |
| B19 |  | 0.035 |
| B20 |  | 1.13 |
| B21 |  | 0.865 |
| B22 |  | 4.14 |
| B23 |  | 6.23 |
| B24 |  | 0.647 |
| B25 |  | 1.12 |
| B26 |  | 1.37 |
| B27 |  | 0.00014 |
| B28 |  | 0.91 |
| B29 |  | 0.727 |
| B30 |  | 1.29 |
| B31 |  | 0.53 |
| B32 |  | 5.39 |
| B33 |  | 0.111 |
| B34 |  | 2.76 |
| B35 |  | 0.994 |

— patent US20250066503A1, “CELL INJURY INDUCING THERAPEUTIC DRUG FOR USE IN CANCER THERAPY” (CHUGAI SEIYAKU KABUSHIKI KAISHA, priority 2016, published 2025)
